Source: paper PMC8892353 (Proceedings of the National Academy of Sciences of the …, 2022)

Key:
[1] = biological target: COA7 (Homo sapiens, UniProt Q96BR5); assay: biochemical
[2] = biological target: the molecule itself; assay: AUC

Kd [1]	Molecule	stoichiometry N [2]
1.4 ± 0.28 µM	C=CC1=C(C)C2=Cc3c(C=C)c(C)c4[n]3[Fe]([Cl])[n]3c(c(C)c(CCC(=O)O)c3=CC3=NC(=C4)C(C)=C3CCC(=O)O)=CC1=N2 [hemin]	–
–	Recombinant human COA7 (natural protein) MAGMVDFQDEEQVKSFLENMEVECNYHCYHEKDPDGCYRLVDYLEGIRKNFDEAAKVLKFNCEENQHSDSCYKLGAYYVTGKGGLTQDLKAAARCFLMACEKPGKKSIAACHNVGLLAHDGQVNEDGQPDLGKARDYYTRACDGGYTSSCFNLSAMFLQGAPGFPKDMDLACKYSMKACDLGHIWACANASRMYKLGDGVDKDEAKAEVLKNRAQQLHKEQQKGVQPLTFG	2
–	Recombinant Y137C COA7 (^Y137CCOA7) (natural protein, human) MAGMVDFQDEEQVKSFLENMEVECNYHCYHEKDPDGCYRLVDYLEGIRKNFDEAAKVLKFNCEENQHSDSCYKLGAYYVTGKGGLTQDLKAAARCFLMACEKPGKKSIAACHNVGLLAHDGQVNEDGQPDLGKARDCYTRACDGGYTSSCFNLSAMFLQGAPGFPKDMDLACKYSMKACDLGHIWACANASRMYKLGDGVDKDEAKAEVLKNRAQQLHKEQQKGVQPLTFG	2
